According to US20250163121A1 (AKSTON BIOSCIENCES, published 2025):
Positions count from the first letter of the chain named.

B1: insulin-Fc fusion protein of SEQ ID NO: 31 (SEQ ID NO: 26 with des hinge D and the mutation cNg-NB138-K; canine IgGB Fc fragment SEQ ID NO: 16) (Fc fusion)
chain: FVNQHLCGSDLVEALALVCGERGFFYTDPTGGGPRRGIVEQCCHSICSLYQLENYCNGGGGAGGGGCPKCPAPEMLGGPSVFIFPPKPKDTLLIARTPEVTCVVVDLDPEDPEVQISWFVDGKQMQTAKTQPREEQFKGTYRVVSVLPIGHQDWLKGKQFTCKVNNKALPSPIERTISKARGQAHQPSVYVLPPSREELSKNTVSLTCLIKDFFPPDIDVEWQSNGQQEPESKYRTTPPQLDEDGSYFLYSKLSVDKSRWQRGDTFICAVMHEALHNHYTQESLSHSPG
notes: Non-glycosylated homodimer made in HEK293 cells; 98.1% homodimer; also called cNg-K with des hinge D
B2: insulin-Fc fusion protein of SEQ ID NO: 22 (insulin polypeptide SEQ ID NO: 5, linker SEQ ID NO: 9, canine IgGA Fc fragment SEQ ID NO: 11) (Fc fusion)
chain: FVNQHLCGSDLVEALALVCGERGFFYTDPTGGGPRRGIVEQCCHSICSLYQLENYCNGGGGAGGGGRCTDTPPCPVPEPLGGPSVLIFPPKPKDILRITRTPEVTCVVLDLGREDPEVQISWFVDGKEVHTAKTQSREQQFNGTYRVVSVLPIEHQDWLTGKEFKCRVNHIDLPSPIERTISKARGRAHKPSVYVLPPSPKELSSSDTVSITCLIKDFYPPDIDVEWQSNGQQEPERKHRMTPPQLDEDGSYFLYSKLSVDKSRWQQGDPFTCAVMHETLQNHYTDLSLSHSPG
notes: Disulfide-linked homodimer made in HEK293 cells
B3: insulin-Fc fusion protein of SEQ ID NO: 26 (insulin polypeptide SEQ ID NO: 5, linker SEQ ID NO: 9, canine IgGB Fc fragment SEQ ID NO: 12) (Fc fusion)
chain: FVNQHLCGSDLVEALALVCGERGFFYTDPTGGGPRRGIVEQCCHSICSLYQLENYCNGGGGAGGGGDCPKCPAPEMLGGPSVFIFPPKPKDTLLIARTPEVTCVVVDLDPEDPEVQISWFVDGKQMQTAKTQPREEQFNGTYRVVSVLPIGHQDWLKGKQFTCKVNNKALPSPIERTISKARGQAHQPSVYVLPPSREELSKNTVSLTCLIKDFFPPDIDVEWQSNGQQEPESKYRTTPPQLDEDGSYFLYSKLSVDKSRWQRGDTFICAVMHEALHNHYTQESLSHSPG
notes: Disulfide-linked homodimer made in HEK293 cells; 93% homodimer
B4: insulin-Fc fusion protein of SEQ ID NO: 29 (SEQ ID NO: 26 with the mutation cNg-NB139-S; canine IgGB Fc fragment SEQ ID NO: 15) (Fc fusion)
chain: B3 chain with N139S
notes: Non-glycosylated homodimer made in HEK293 cells; 98.3% homodimer; also called cNg-S

molecular target: T1, human insulin receptor (on human IM-9 cells) (human, UniProt P06213 28-1382); experiment: competition with biotinylated RHI on human IM-9 cells, flow cytometry, 4 C
T1 construct: whole, on cells; Endogenous receptor on IM-9 cells; the mature receptor is a processed alpha2-beta2 tetramer from one precursor; also called IR
T1 sequence (P06213 28-1382): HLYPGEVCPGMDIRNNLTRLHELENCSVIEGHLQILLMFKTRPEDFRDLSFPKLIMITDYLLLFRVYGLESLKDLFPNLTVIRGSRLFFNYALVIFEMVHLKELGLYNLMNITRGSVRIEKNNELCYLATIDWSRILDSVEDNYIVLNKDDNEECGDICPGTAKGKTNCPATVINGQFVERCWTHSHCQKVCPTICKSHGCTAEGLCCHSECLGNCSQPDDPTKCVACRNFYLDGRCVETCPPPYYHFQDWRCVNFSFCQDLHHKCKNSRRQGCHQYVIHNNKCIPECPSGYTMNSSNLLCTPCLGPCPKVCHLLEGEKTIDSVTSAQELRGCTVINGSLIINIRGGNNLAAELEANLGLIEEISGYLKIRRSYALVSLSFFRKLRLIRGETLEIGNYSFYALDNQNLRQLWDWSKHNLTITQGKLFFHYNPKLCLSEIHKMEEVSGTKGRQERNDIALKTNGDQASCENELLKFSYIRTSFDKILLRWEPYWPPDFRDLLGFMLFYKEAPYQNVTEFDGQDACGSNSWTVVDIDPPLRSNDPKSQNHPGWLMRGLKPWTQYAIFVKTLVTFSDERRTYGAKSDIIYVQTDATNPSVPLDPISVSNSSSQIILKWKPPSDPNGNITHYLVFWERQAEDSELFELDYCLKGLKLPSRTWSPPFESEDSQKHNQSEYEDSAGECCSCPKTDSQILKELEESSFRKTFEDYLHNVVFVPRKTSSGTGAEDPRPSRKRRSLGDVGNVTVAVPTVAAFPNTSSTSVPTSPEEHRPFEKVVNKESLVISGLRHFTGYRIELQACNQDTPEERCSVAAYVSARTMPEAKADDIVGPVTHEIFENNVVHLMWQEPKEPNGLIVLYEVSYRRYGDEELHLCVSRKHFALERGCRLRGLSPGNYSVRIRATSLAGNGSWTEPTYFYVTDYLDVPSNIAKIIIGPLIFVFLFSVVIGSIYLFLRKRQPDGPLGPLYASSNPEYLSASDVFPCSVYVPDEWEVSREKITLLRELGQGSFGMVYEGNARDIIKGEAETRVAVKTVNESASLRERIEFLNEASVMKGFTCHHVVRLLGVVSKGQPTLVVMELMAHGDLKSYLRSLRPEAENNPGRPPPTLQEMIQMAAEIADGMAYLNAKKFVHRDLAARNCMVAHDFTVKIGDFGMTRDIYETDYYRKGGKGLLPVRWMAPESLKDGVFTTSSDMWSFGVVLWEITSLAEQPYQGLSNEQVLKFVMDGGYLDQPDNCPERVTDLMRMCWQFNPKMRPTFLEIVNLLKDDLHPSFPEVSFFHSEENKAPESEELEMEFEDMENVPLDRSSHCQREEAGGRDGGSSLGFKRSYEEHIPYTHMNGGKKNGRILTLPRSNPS
Protocol: Biotinylated-RHI was diluted in FACS staining medium to a concentration of 1.25 μg/mL. 40 μL of the serially diluted test compound and 8 μL of 1.25 μg/mL Biotin-RHI were added into each well of a V bottom microtiter plate, mixed by slow vortexing, and placed on ice. 40 μL of an IM-9 cell suspension (8×10^6 cells/mL) was then added to each well by multichannel pipette, mixed again gently and incubated on ice for 30 min to allow competitive binding on the insulin receptor on IM-9 cells. Cells were then washed twice with 275 μL of ice-cold FACS wash buffer (HBSS/2 mM EDTA/0.1% Na-azide+0.5% horse serum) by centrifuging the V-bottom plate at 3000 rpm for 3 min and aspirating the supernatant. Cells were then resuspended in 40 μL of FACS staining medium containing 1:100 diluted Streptavidin-PE (Life Technologies) for 20 min on ice. Cells were then washed once with 275 μL of ice-cold FACS buffer and finally fixed with 3% paraformaldehyde for 10 min at room temp. Cells were then washed once with 275 μL of ice-cold FACS buffer and resuspended in 250 μl of FACS buffer for analysis.
The V-bottom plates containing cells were then analyzed on a Guava 8-HT flow cytometer (Millipore). Biotinylated-RHI binding to insulin receptor was quantitated by the median fluorescence intensity (MFI) of the cells on the FACS FL-2 channel for each concentration of the test compound. Control wells were labeled only with biotinylated-RHI and were used to calculate the percent (%) inhibition resulting from each test compound concentration. The % inhibition by test compounds of biotinylated-RHI binding on IM-9 cells was plotted against log concentrations of the test compound, and the resulting IC50 values were calculated using GraphPad Prism (GraphPad Software, La Jolla, CA) for the test compounds. Lower IC50 values of the test compound therefore indicate greater levels of biotinylated-RHI inhibition at lower concentrations indicating stronger binding of the insulin-Fc fusion protein to the insulin receptor. A control compound, such as unlabeled recombinant human insulin (RHI) was also used as an internal standard to generate an RHI IC50 against which a given compound IC50 could be ratioed (IC50(compound)/IC50(RHI)). Lower IC50 ratios have more similar binding to RHI (stronger binding to insulin receptor), while higher IC50 ratios have weaker binding to the insulin receptor relative to RHI.

Row | Binder | IC50
1 | B1 | 147 nM
2 | B2 | 2730 nM
3 | B3 | 28 nM
4 | B4 | 145 nM
